These results are taken from patent publication US12559749B2, “Methods of rescuing stop codons via genetic reassignment with ACE-tRNA” (UNIVERSITY OF IOWA RESEARCH FOUNDATION, priority 2017, dated 2026).

The data set concerns native stop codons (TAA, TAG, TGA), 3′UTR ribosome density. Put plainly: Ribosome footprint profiling of transcriptome-wide 3′UTRs, HEK293 cells. The class given is cell-based, human. The source says:
The question was raised whether ACE-tRNAs that show efficacious suppression of premature stop codons may also induce global readthrough of native stop codons. To address this potential “off target” suppression, a transcriptome-wide quantitative profile of actively engaged ribosomes on all cellular transcripts was obtained by generating libraries of ribosome footprints from HEK293 cells expressing exogenous ACE-tRNAs or a control mock plasmid (puc57GG). Streptomycin was removed from the growth media to prevent readthrough artifacts. For comparison, the ribosome footprint library was also generated from cells in the presence or absence of G418 (150 μM, 48 h). […] Only transcripts with a minimum threshold of 5 RPKM in the coding sequence and 0.5 RPKM in the 3′UTR in two replicate libraries were included for the quantitation comparison (254 transcripts in G418 and 495-748 transcripts in ACE-tRNAs). […] ACE-tRNAs examined here had no detectable change of 3′UTR ribosome density with the exception of ACE-tRNA Gln-UAA and Arg-UGA which induced approximately a 2-fold increase in 3′UTR ribosome density for the cognate stop codon complimentary to the ACE-tRNA anticodon. Understanding the biological significance of 2-fold readthrough of protein stops will require further study, but this effect is substantially lower compared to the 100- to 1000-fold suppression of PTC for the same ACE-tRNA.
Multiple in-frame stop codons are frequently found at the end of genes 37-39 and may cause a minor difference in overall 3′UTR ribosome density for ACE-tRNA and G418 treatment. Ribosome occupancy was examined at each nucleotide in the 3′UTR within a 60 nt region downstream of the stop codons. […] Reads were normalized per total million-mapped reads, compared against control cells, and reported as a log 2-fold change as in panel A. More than 5,200 transcripts were mapped to at least 1 footprint in the region of interest. […] Taken together, the ribosome profiling data argue that efficiency of native stop codon suppression by ACE-tRNAs is generally low, and markedly less than the level of PTC suppression.
Ribosome Footprint Profiling Library preparation. HEK293 cells transiently transfected with ACE-tRNAs and control plasmid (puc57GG) were grown in standard grown media in the absence of Pen-Strep for 48 h. Libraries were prepared as described^55, with a few modifications. Briefly, cells were rapidly cooled by addition of ice-cold PBS, lysed in lysis buffer (20 mM Tris-HCl/pH7.4, 150 mM NaCl, 5 mM MgCl2, 1 mM DTT, 1% (v/v) Triton X-100, and 25 U ml^−1 Turbo DNase I) for 10 min on ice, and triturated with ten times through a 26-G needle. […]

B1: Glychr19.trna2: top performing glycine ACE-tRNA UGA, SEQ ID NO: 53 (nucleic acid)
chain: GCGUUGGUGGUAUAGUGGUUAGCAUAGCUGCCUUCAAAGCAGUUGACCCGGGUUCGAUUCCCGGCCAACGCA
modifications: chemistry not given here
For B1, the “readthrough of native stop codons / effect on global translation termination” value (discussion of profiling data) is “no significant effect on global translation termination”. Under “per nucleotide, -35 to +65 nt”, the “ribosome occupancy in the early region of 3′UTR downstream of stop codons” value is given as “no observable change of ribosome occupancy”.
